This note sets out measurements from IntAct's records for PubMed 12869544.

The chains are these.
B1: Translocase of chloroplast 33, chloroplastic (Arabidopsis thaliana (Mouse-ear cress)), O23680 (parent)
chain: MGSLVREWVGFQQFPAATQEKLIEFFGKLKQKDMNSMTVLVLGKGGVGKSSTVNSLIGEQVVRVSPFQAEGLRPVMVSRTMGGFTINIIDTPGLVEAGYVNHQALELIKGFLVNRTIDVLLYVDRLDVYRVDELDKQVVIAITQTFGKEIWCKTLLVLTHAQFSPPDELSYETFSSKRSDSLLKTIRAGSKMRKQEFEDSAIAVVYAENSGRCSKNDKDEKALPNGEAWIPNLVKAITDVATNQRKAIHVDKKMVDGSYSDDKGKKLIPLIIGAQYLIVKMIQGAIRNDIKTSGKPL

This experiment covers variants of B1. The note with it: with tc159_arath TOC159, O81283.
tc159_arath TOC159, O81283, sequence (O81283 whole entry): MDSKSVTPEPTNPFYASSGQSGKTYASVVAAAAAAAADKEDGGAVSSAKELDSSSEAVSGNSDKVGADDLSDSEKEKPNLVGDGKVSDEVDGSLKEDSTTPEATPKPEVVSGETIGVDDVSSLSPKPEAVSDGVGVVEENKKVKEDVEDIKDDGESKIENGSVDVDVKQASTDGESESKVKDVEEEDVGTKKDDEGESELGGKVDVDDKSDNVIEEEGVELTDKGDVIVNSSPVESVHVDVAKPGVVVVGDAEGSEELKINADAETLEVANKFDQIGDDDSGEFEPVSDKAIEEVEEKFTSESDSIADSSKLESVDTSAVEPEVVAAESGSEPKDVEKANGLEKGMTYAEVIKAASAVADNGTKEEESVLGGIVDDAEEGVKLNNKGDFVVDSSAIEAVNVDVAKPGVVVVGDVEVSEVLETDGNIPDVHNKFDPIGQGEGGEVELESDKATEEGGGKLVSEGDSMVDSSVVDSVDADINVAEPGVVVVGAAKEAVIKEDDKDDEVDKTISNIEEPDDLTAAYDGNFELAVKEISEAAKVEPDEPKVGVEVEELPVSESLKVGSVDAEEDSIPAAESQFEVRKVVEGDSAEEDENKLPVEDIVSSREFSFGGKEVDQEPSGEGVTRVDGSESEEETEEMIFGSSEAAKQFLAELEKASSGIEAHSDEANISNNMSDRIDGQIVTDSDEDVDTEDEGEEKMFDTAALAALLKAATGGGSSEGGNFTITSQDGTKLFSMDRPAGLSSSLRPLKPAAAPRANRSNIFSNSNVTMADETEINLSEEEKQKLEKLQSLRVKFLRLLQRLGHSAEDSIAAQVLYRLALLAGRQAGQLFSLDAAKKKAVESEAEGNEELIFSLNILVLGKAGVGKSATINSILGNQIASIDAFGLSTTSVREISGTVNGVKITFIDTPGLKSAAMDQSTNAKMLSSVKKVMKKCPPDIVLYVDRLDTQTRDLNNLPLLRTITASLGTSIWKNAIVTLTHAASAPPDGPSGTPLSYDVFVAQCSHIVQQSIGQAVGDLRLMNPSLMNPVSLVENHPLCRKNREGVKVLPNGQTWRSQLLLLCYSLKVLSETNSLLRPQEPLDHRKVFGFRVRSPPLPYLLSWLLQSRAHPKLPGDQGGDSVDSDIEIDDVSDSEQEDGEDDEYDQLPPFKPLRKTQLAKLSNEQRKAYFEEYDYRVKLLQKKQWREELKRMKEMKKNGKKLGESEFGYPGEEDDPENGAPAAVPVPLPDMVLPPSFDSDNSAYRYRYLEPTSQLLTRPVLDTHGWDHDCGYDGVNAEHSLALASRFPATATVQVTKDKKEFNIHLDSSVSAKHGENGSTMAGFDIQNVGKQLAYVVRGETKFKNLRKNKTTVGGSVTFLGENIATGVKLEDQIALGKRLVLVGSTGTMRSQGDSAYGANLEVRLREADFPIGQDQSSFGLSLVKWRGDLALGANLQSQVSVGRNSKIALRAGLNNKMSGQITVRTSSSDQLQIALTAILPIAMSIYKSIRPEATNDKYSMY
Turning to MGSLVREWVGFQQFPAATQEKLIEFFGKLKQKDMNSMTVLVLGKGGVGKSSTVNSLIGEQVVRVSPFQAEGLRPVMVSRTMGGFTINIIDTPGLVEAGYVNHQALELIKGFLVNRTIDVLLYVDRLDVYAVDELDKQVVIAITQTFGKEIWCKTLLVLTHAQFSPPDELSYETFSSKRSDSLLKTIRAGSKMRKQEFEDSAIAVVYAENSGRCSKNDKDEKALPNGEAWIPNLVKAITDVATNQRKAIHVDKKMVDGSYSDDKGKKLIPLIIGAQYLIVKMIQGAIRNDIKTSGKPL [R130A], the “effect of a mutation on the interaction” value is reported as “decreasing interaction”.
